Article PMC4759255

Molecular target: T1, His-LexA (Synechocystis sp. PCC 6803) (UniProt P73722)
T1 sequence: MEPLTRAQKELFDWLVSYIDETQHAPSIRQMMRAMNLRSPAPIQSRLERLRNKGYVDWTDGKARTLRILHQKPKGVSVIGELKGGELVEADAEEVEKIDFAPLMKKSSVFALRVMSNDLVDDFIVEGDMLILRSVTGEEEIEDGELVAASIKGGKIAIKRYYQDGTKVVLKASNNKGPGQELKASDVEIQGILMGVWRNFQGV
Assay: EMSA
Settings: Roche DIG gel shift kit 2nd generation buffer per manufacturer plus 1 mM DTT, 25 min at room temperature, 6% polyacrylamide gel; 5x and 50x unlabeled …

| Sequence | binding |
| --- | --- |
| GTGACAACTAACATCACCTAGATGATAAGTTAATTTACAACAAATGATTGTTAGCCAGCTCACCAAAACCTGTGACAATAAACACCAAAACAGTTTACTTGTTTCTATAATTTTCCCTGAAACTGGGGTTTGAGAGGGTCTAGGGGAGAATTTAGTTATTGTTTGGATATATTGTCATGGCACCACAAAAGCCGTCAACAAA (double strand) [pilA9 promoter] | binds |
| TGGGATCAAACAACAAGAAAAAATCAATTTACCCTGCCCATGGCAATAGTTTTAAGGTTAACAAAAAAAATAGAATTTACCGCAATCGACGGGTAAATTTCCAGAGGATACCCCCAACTCCAGAAGCAGAAATCTTGCCAGAAAAGCTTTTTCTGTTACTATACTTAACAAGTAACTACTTTTTCC (double strand) [ggpS promoter] | binds |
| TGGGCAGGGTAAATTGATTTTTTCTTGTTGTTTGATCCCATTTTCCAGTCTTTTTGACTTCCATTCAGTCAGGATAATTTTTGCAGTTTTTTTATGGAGTTTTGATAACATTGAGCTTTGCCCCCGGCGATCGCCTAGGGATAAACAATAAACGTGTGAACTAATATGCCTGGATTTATCCCTGGATTGACATTGTTTTTGCC (double strand) [slr1670 promoter] | binds |
| TTGTTCAAGATCATTAGGCTTTAGTATATTTATAGTGATCAAAAAAGCAAGTGGTGAAAGAAACACCCAGACAAATATTCACAAAACTTAATTTTACTTAACAAATCATAATCCAGTTACGCAGTTACCACCTACACGGGAACCAGAACGCACGATTCCCAAGCCGGAAGAAATTACTAAGCATGGCTCATAGGATGTTCTAC (double strand) [pilA7 promoter] | binds |
